From the RNAGym collection of RNA variant scans (doi:10.1021/acssynbio.7b00057) come the findings set out here.

Sequences and labels used below:
B1: Pistol ribozyme (parent)
chain: GGGUCGUUGUUCCAUAAUCGCGUGGAUAUGGCACGCAAGUUUCUACCGGGCACCGUAAAUGUCCGACUGGAGCCGUUCGGGCGGCUAUAAACAGACCUCAGGCCCGAAGCGUGGCGGCACCUGCCGCCGGUGGUAAAAAAGAUCGGAAGAGCACACGUCU

In this data set the parent is B1. Briefly: aptazyme ON/OFF ratio, guanine; higher = stronger switching; co-transcriptional cleavage with and without guanine.
In the case of U7A U8C U11G C12U C13G, the “aptazyme ON/OFF ratio” value turned out to be 1.06.
Turning to U7A U8C U11G C12U C13U, the “aptazyme ON/OFF ratio” value amounted to 1.1.
As for U7A U8C U11G C12U C13A, the figure is 1.08.
Regarding U7A U8G G9A U10A, the “aptazyme ON/OFF ratio” value worked out at 1.4.
For U7A U8C U10G U11C C12G C13G, the “aptazyme ON/OFF ratio” value was found to be 1.17.
The value for U7A U8C U10G U11C C12G C13U was 1.57; that for U7A U8C U10G U11C C12G C13A was 1.45; that for U7A U8C U10G U11G C13G was 1.2.
As for U7A U8C U10G U11G C13A, the figure is 1.2; as for U7A U8C U10G U11G C13U, 1.39.
Regarding U7A U8C U10G U11A C12G, the “aptazyme ON/OFF ratio” value is 1.37.
Regarding U7A U8C U10G U11A C12U, the “aptazyme ON/OFF ratio” value came out at 1.11.
On to U7A U8G G9A U10A U11A C12G C13G, for which the “aptazyme ON/OFF ratio” value was 1.34.
The value for U7A U8G G9A U10A U11A C12G C13A was 1.29.
The value for U7A U8G G9A U10A U11A C12G C13U was 1.37; that for U7A U8C U10G U11C C12A was 2.43; that for U7A U8C U10G U11C C12G was 2.72.
For U7A U8C U10G U11C C12U, the “aptazyme ON/OFF ratio” value worked out at 1.28.
As for U7A U8C U10G U11G C12A, the figure is 1.25; as for U7A U8C U10G U11G C12G, 1.04.
With U7A U8C U10G U11G C12U, the “aptazyme ON/OFF ratio” value came out at 1.34.
Take U7A U8G G9A U10A U11C C12G C13A: the “aptazyme ON/OFF ratio” value was 1.21.
As for U7A U8G G9A U10A U11C C12G C13G, the “aptazyme ON/OFF ratio” value was 1.08.
As for U7A U8G G9A U10A U11C C12G C13U, the figure is 1.33; as for U7A U8G G9A C12U C13U, 1.04; as for U7A U8G G9A C12U C13A, 1.28.
Consider U7A U8G G9A C12U C13G, for which the “aptazyme ON/OFF ratio” value was found to be 1.23.
Consider U7A U8C U10G U11A C12G C13A, for which the “aptazyme ON/OFF ratio” value amounted to 1.18.
As for U7A U8C U10G U11A C12G C13G, the figure is 1.14; as for U7A U8C U10G U11A C12G C13U, 1.2.
The value for U7A U8G G9A was 3.13; that for U7A U8C U10G U11G C12U C13G was 1.23; that for U7A U8C U10G U11G C12U C13A was 1.23.
As for U7A U8C U10G U11G C12U C13U, the figure is 1.24.
Turning to U7A U8C U10G U11G, the “aptazyme ON/OFF ratio” value came out at 1.4.
The value for U7A U8C U10G U11C was 1.74; that for U7A U8G C12G C13A was 1.38.
As for U7A U8G C12G C13G, the figure is 1.27.
As for U7A U8G C12G C13U, the figure is 1.38; as for U7A U8G G9A C12G C13A, 1.19; as for U7A U8G G9A C12G C13U, 1.37.
As to U7A U8G G9A C12G C13G, the “aptazyme ON/OFF ratio” value was found to be 1.81.
Take U7A U8C U11A C12G: the “aptazyme ON/OFF ratio” value was 1.16.
As for U7A U8C U11A C12A, the figure is 1.32.
The value for U7A U8C U11A C12U was 1.23; that for U7A U8C U11G was 1.37; that for U7A U8C U11C was 1.2.
The value for U7A U8C U11A was 1.14; that for U7A U8C U10G U11A C13U was 1.09; that for U7A U8C U10G U11A C13A was 1.12.
In the case of U7A U8C U10G U11A C13G, the “aptazyme ON/OFF ratio” value came out at 1.2.
The value for U7A U8C U10G U11C C12U C13G was 1.29.
The value for U7A U8C U10G U11C C12U C13U was 1.51; that for U7A U8C U10G U11C C12U C13A was 1.36.
As for U7A U8G G9A C13G, the figure is 1.18; as for U7A U8G G9A C13A, 1.39.
On to U7A U8G G9A C13U, for which the “aptazyme ON/OFF ratio” value stood at 1.39.
With U7A U8C U11C C12G C13U, the “aptazyme ON/OFF ratio” value came out at 1.5.
For the variant U7A U8C U11C C12G C13G, the “aptazyme ON/OFF ratio” value stood at 1.22.
The value for U7A U8C U11C C12G C13A was 1.32.
The value for U7A U8G C13U was 1.2; that for U7A U8G C13G was 1.1; that for U7A U8G C13A was 1.42.
As for U7A U8C U10G U11G C12G C13U, the figure is 1.4.
Take U7A U8C U10G U11G C12G C13A: the “aptazyme ON/OFF ratio” value turned out to be 1.08.
In the case of U7A U8C U10G U11G C12G C13G, the “aptazyme ON/OFF ratio” value was 1.19.
As for U7A U8G G9A U10A C12U C13U, the figure is 1.04.
As for U7A U8G G9A U10A C12U C13A, the “aptazyme ON/OFF ratio” value turned out to be 1.38.
The value for U7A U8G G9A U10A C12U C13G was 1.13; that for U7A U8G G9A U10A C12A C13G was 1.06; that for U7A U8G G9A U10A C12A C13A was 1.27.
The value for U7A U8G G9A U10A C12A C13U was 1.37; that for U7A U8C U10G U11A C12U C13G was 1.14.
As for U7A U8C U10G U11A C12U C13U, the “aptazyme ON/OFF ratio” value came to 1.2.
The value for U7A U8C U10G U11A C12U C13A was 1.2; that for U7A U8C U11G C13G was 1.15; that for U7A U8C U11G C13U was 1.21.
Regarding U7A U8C U11G C13A, the “aptazyme ON/OFF ratio” value is 1.12.
For U7A U8C U10G U11C C12A C13U, the “aptazyme ON/OFF ratio” value amounted to 1.39.
In the case of U7A U8C U10G U11C C12A C13A, the “aptazyme ON/OFF ratio” value was determined as 1.34.
The value for U7A U8C U10G U11C C12A C13G was 1.12; that for U7A U8C U11G C12G C13G was 1.1.
The value for U7A U8C U11G C12G C13U was 1.11; that for U7A U8C U11G C12G C13A was 1.04.
